The test system of this data set is VIRP1 (Arabidopsis thaliana). In words: EMSA. On the technique in general: In EMSA bound probe runs differently from free probe, usually more slowly.
As for HSVd WT, the binding signal (% of WT shifted) stood at 100.

PSTVd WT: the binding signal (% of WT shifted) came to 100.

As to Q-satRNA WT, the binding signal (% of WT shifted) is 100.

The record behind these values is paper PMC9516175.
